Target: 猫杯状病毒 (Feline Calicivirus, FCV), BJH13株 (Feline calicivirus strain BJH13)
Assay: cell-based or functional assay

B1: 2G3单克隆抗体 (monoclonal antibody against feline calicivirus, from hybridoma 2G3, CGMCC NO.45148) (antibody, V domains shown)
VH: QVQLQQSGPELVKPGTSVKLSCQASGYTFTNYYMWWVKQRPGQGLEWIGQINPNNDNTDFNEKFRNKATLTVDKSSSTAYMQLSRLTSEDSAVYYCTRRAYWGQGTLVTVSA
VL: GVLLTQAPLSLPVSLGDQASISCRSSQYVVYINGNSYLEWYLQKPGQSPKLLIYKVSNRFSGVPDRFSGSGSGTDFTLKISRVEAEDLGIYYCFQGSHVPYTFGGGTKLEIR
B1 was tested, and the 中和抗体效价 (neutralising antibody titre of the injection) was 1280 titre (1:x), the 中和效价 (neutralisation titre of hybridoma supernatant) was 220 to 320 titre (1:x) and the 小鼠腹水中和效价 (neutralisation titre of ascites) was 25100 titre (1:x).

Source: CN115141273A
